T1: H-TKQTARK(Me3)STGGKAPR-OH (TR-15, H3 3-17 K9me3 peptide)
T1 chain: TKQTARKSTGGKAPR


Tests used:
[1] = biological target: T1, H-TKQTARK(Me3)STGGKAPR-OH (TR-15, H3 …)
[2] = biological target: H3 31-41 K36me3 peptide, P68431

| Protein | Km (µM), FDH-coupled demethylase assay [1] [µM] | Km (µM), FDH-coupled demethylase assay [2] [µM] |
| --- | --- | --- |
| Human KDM4A 1-347 (His6-tagged, expressed in E. coli from pET28a) (protein) MASESETLNPSARIMTFYPTMEEFRNFSRYIAYIESQGAHRAGLAKVVPPKEWKPRASYDDIDDLVIPAPIQQLVTGQSGLFTQYNIQKKAMTVREFRKIANSDKYCTPRYSEFEELERKYWKNLTFNPPIYGADVNGTLYEKHVDEWNIGRLRTILDLVEKESGITIEGVNTPYLYFGMWKTSFAWHTEDMDLYSINYLHFGEPKSWYSVPPEHGKRLERLAKGFFPGSAQSCEAFLRHKMTLISPLMLKKYGIPFDKVTQEAGEFMITFPYGYHAGFNHGFNCAESTNFATRRWIEYGKQAVLCSCRKDMVKISMDVFVRKFQPERYKLWKAGKDNTVIDHTLPT | 92.5 | 170 |
| Human KDM4B 1-348 (His6-tagged, expressed in E. coli from pET28a) (protein) MGSEDHGAQNPSCKIMTFRPTMEEFKDFNKYVAYIESQGAHRAGLAKIIPPKEWKPRQTYDDIDDVVIPAPIQQVVTGQSGLFTQYNIQKKAMTVGEYRRLANSEKYCTPRHQDFDDLERKYWKNLTFVSPIYGADISGSLYDDDVAQWNIGSLRTILDMVERECGTIIEGVNTPYLYFGMWKTTFAWHTEDMDLYSINYLHFGEPKSWYAIPPEHGKRLERLAIGFFPGSSQGCDAFLRHKMTLISPIILKKYGIPFSRITQEAGEFMITFPYGYHAGFNHGFNCAESTNFATLRWIDYGKVATQCTCRKDMVKISMDVFVRILQPERYELWKQGKDLTVLDHTRPT | 88.3 | 138 |
